# Laboratory results published in US20210353784A1, “DETECTING AND TREATING CANCERS USING CELL PENETRANT MTP53-OLIGOMERIZATION-DOMAIN PEPTIDE” (priority 2020, published 2021).
# Tests used:
# WHIM6 and WHIM25 tumors = assay: SDS-PAGE Cy5 signal of protein extracts from WHIM6 and WHIM25 PDX tumors; format: in vivo, NSG mice; conditions: SDS-PAGE of tumor extracts
# Procedure: 25 μg of proteins were run on 12% polyacrylamide gel and the Cy5p53Tet peptide accumulated in tumors was scanned at Cy5 channel and quantified. The intensity of Cy5p53Tet peptide was analyzed by ImageJ. p53 and MDM2 protein levels from the WHIM6 and WHIM25 tumors post-injection with Cy5p53Tet peptide at 1 hr, 2 hr and 3 hr were determined by Western blot analysis. 25 ug of proteins were load on 12% SDS-PAGE gel.
# First, WHIM6/WHIM25 bilateral PDX tumor-bearing NSG mice were tail vein injected with 10 nmol of Cy5p53Tet peptide to study its delivery efficacy (FIG. 5A). Then, the WHIM6 and WHIM25 tumors were removed at 1, 2, and 3 hr post-injection. Uptake of the Cy5p53Tet peptide in WHIM6 and WHIM25 tumors was assessed on an in vivo epifluorecent imaging system (IVIS). […] The Cy5p53Tet peptide signal was investigated in PDX tumor tissue by extracting proteins from the WHIM6 and WHIM25 tumors post-injection with the Cy5p53Tet peptide at 1 hr, 2 hr, and 3 hr, and the Cy5p53Tet peptide effects were characterized in PDX models (FIG. 5B). Samples were run on 12% polyacrylamide gel and the Cy5p53Tet peptide accumulated in tumors was scanned at Cy5 channel and quantified. […] In addition, p53 and MDM2 protein levels were checked upon Cy5p53Tet peptide treatment in PDX tumors.
# MDA-MB-468 cells = conditions: 500 nM, 24 h; mtp53 R273H
# Procedure: (§1) Three independent experiments with biological replicates were performed for all ±SEM *p-value ≤0.05, **p-value ≤0.01, ***p-value ≤0.001.
# (§2) Toxicity to normal cells and tissues represents an important barrier for drug delivery, and an advantage of cell penetrating peptide-based therapies is their low toxicity compared to most drug carriers. To evaluate the toxicity of Cy5p53Tet to breast cancer cells and normal breast mammary epithelial cells, the viability of cells was evaluated following peptide treatment (FIG. 1G).
# (§3) Peptidecytotoxicity Assay. A total of 1.25×10^5 cells were seeded in a 12-well plate the day before and grown at 37° C. Cells were treated with 500 nM Cy5p53Tet for 24 h, and 0.1 mL MTT solution [5 mg mL^−1 (3-(4, 5-dimethylthiazolyl-2)-2, 5-diphenyltetrazolium bromide] was added to the cells and incubated at 37° C. for 1 h. The cells were then resuspended in 0.04 N hydrochloric acid diluted in isopropanol and incubated in the dark on a shaker for 5 min at room temperature. The absorbance was quantified at 550 nm, and the background absorbance was subtracted at 620 nm.
# HCC70 = conditions: 500 nM, 24 h; mtp53 R248Q
# Procedure: as §1, §2, §3
# mtp53 = target: T1, mtp53 (Homo sapiens, UniProt P04637, R273H); assay: Glutaraldehyde cross-link assay in MDA-MB-468 cell lysates; format: binding; conditions: in the presence of glutaraldehyde; cells treated 1.5 μM, 4 h; Cy5 channel
# T1 construct: endogenous in cells; host or cells: MDA-MB-468
# Description: FIG. 4D illustrates Cy5p53Tet treated with glutaraldehyde without MDA-MB-468 cell lysate.
# Wtp53 can form a tetramer, and its oligomerization regulates its transcriptional activity. Tetramerization is important for both wtp53 and mtp53, as both are preferentially degraded by MDM2 when present as dimers rather than tetramers. The oligomerization states of mtp53 were examined and the interactions were investigated by Cy5p53Tet and mtp53 using glutaraldehyde (GA) cross-linking assays (FIG. 4A to FIG. 4D). MDA-MB-468 cells were treated with vehicle or 1.5 μM of Cy5p53Tet for 4 h. Whole-cell lysates were cross-linked with glutaraldehyde concentrations of 0, 0.0025, or 0.005%, and the samples were analyzed by Western blot to detect p53 oligomerization forms (FIG. 4A). In cells without glutaraldehyde, monomers of mtp53 were detected; at 0.0025% glutaraldehyde, monomers, dimers, and tetramers were visible; and at 0.005% glutaraldehyde, the predominant form was tetramers. The presence of Cy5p53Tet-containing mtp53 polypeptides was evaluated using the Cy5 channel (FIG. 4B). Cy5p53Tet was detected at a low molecular weight: <12 kDa in the absence of glutaraldehyde (FIG. 4B, lane 4). […] As a control, the glutaraldehyde cross-linking of Cy5p53Tet was examined without mtp53 and found no such signal (FIG. 4D). […]
# [1] = test system: MCF7 and MDA-MB-468 xenografts; assay: NIRF imaging of Cy5p53Tet in mice bearing bilateral MCF7/MDA-MB-468 xenografts (in vivo and ex vivo epifluorescence); conditions: in vivo, after intravenous administration, 10 nmol
# Procedure: At 40, 80, and 180 min after injection, mice were sacrificed, and the xenografts were resected and imaged ex vivo (FIG. 2C).
# NIRF Imaging of Cy5p53Tet in Mice Bearing Bilateral MCF7/MDA-MB-468 Xenografts. Female athymic nude mice (6-10 weeks old, 01B74-Athymic NCr-nu/nu;) were obtained from Charles River Laboratories. Animals were supplemented with 17β-estradiol with a dose of 0.72 mg/pellet (60-day release) into the neck 7 days before MCF7 cells were subcutaneous implanted. 5×10^6 cells/mouse MCF7 cells were suspended in 100 μL of 1:1 media/matrigel basement membrane matrix (Corning) and injected subcutaneously on the left flank of each mouse (n≥3/group). After 4 weeks, 5×10^6 cells/mouse MDA-MB-468 cells were subcutaneously implanted in the right flank of the mouse in 100 μL of 1:1 media/matrigel basement membrane matrix. Imaging experiments were performed when the tumors reached a volume of ˜50-250 mm^3 (after approximately 3 weeks). Cy5p53Tet (10 nmol) was injected into the tail vein of each mouse. Prior to in vivo imaging, the mice were anesthetized with 1.5-2.0% isoflurane (Baxter Healthcare). Images were collected using an IVIS Spectrum (Perkin Elmer) 12 min, 30 min, and 3 h following the administration of Cy5p53Tet. […] Fluorescence imaging was carried out with excitation and emission wavelengths of 640 and 680 nm, respectively. […]
# [2] = test system: MDA-MB-468 cells compared to MCF7 cells; assay: Cy5p53Tet cellular uptake by live cell imaging (confocal, Nikon Element quantification); format: cell-based, Human; conditions: 500 nM, 2 h incubation; Nikon Element analysis
# Procedure: Hoechst staining (blue) was used to stain the nuclei. Two independent experiments with biological replicates were performed.
# FIG. 1D is a graph showing quantification of Cy5p53Tet uptake in MCF7 and MDA-MB-468 cells via Nikon Element analysis. At least 200 cells per sample were measured by fluorescence microscopy.
# In vitro uptake, specificity, and toxicity assays were performed to gauge the potential of mtp53ODPs as imaging agents. Live cell imaging was performed to compare the ability of Cy5p53Tet to stain ER+MCF7 breast cancer cells that express wtp53 and MDA-MB-468 TNBC cells which express stable missense mtp53 R273H. Cy5p53Tet was anticipated to detect both wtp53 and mtp53, but because of the higher stability of mtp53, MDA-MB-468 cells were predicted to have a higher signal. The intensity of the Cy5p53Tet signal was clearly higher in the MDA-MB-468 cells compared to the MCF7 cells (FIG. 1B), a difference that correlated to the level of p53 expression as determined by Western blot (FIG. 1C). […] However, after a 2 h incubation with Cy5p53Tet, the colocalization was clearly evident with the Hoechst-stained DNA (Supplemental Illustration S3 in U.S. Provisional application 63/186,409).
# Cy5p53Tet Cellular Uptake by Live Cell Imaging. Cells were seeded at 2×10^5 per well in a 12-well glass bottom plate 1 day before imaging (MatTek). […]
substance,measurement,setting,value
H-CysCy5-RKKRRQRRGEYFTLQIRGRERFEMFRELNEALELK-OH (N-terminal Cy5; Synthetic peptide based on p53 protein) [Cy5p53Tet],retention of Cy5p53Tet in mtp53 R273H WHIM25 versus wtp53 WHIM6,WHIM6 and WHIM25 tumors,longer
same,mitochondrial activity reduced by,MDA-MB-468 cells,10.6%
same,mitochondrial activity reduced by,HCC70,13.6%
same,molecular weight at which Cy5p53Tet was observed,mtp53,> 225 kDa
same,NIRF signal in MCF7 tumors,[1],no signal
same,NIRF signal in MDA-MB-468 tumors,[1],clearly observed
same,uptake of the mtp53ODP in MDA-MB-468 cells compared to MCF7 cells,[2],twofold higher
